Earlier results on one substance are cited in PMC3439503.

The data set concerns the target dystrophin N-ABD N-ABD (Homo sapiens) (UniProt P11532).

As usually defined, the Kd is the equilibrium constant for the complex coming apart. Take “dystrophin N-ABD N-ABD (from UniProt P11532)”: the Kd was 4 µM.
